We go through three compounds from PMC11800397, “Identification of the Polymerizing Glycosyltransferase Required for the Addition of D-Glucuronic Acid to the Capsular Polysaccharide of Campylobacter jejuni” (Biochemistry, 2025).

For orientation: Km means the substrate concentration at which the rate is half of its maximum. What is called kcat is the number of substrate molecules converted per active site and unit of time at saturation.

Data set [1] deals with CO[C@@H]1O[C@H](CO)[C@@H](O)[C@H]1O. The experiment in a line: purified protein. As to conditions: 2.0 mM UDP-D-GlcA fixed, 0-25 mM substrate, 10 μM enzyme, 50 mM NH4HCO3, pH 8.0, 25 °C.
Data set [2] has as its target T1, Cj1438C (C-terminal domain of Cj1438) (Campylobacter jejuni, UniProt Q0P8H6).
T1 construct: C-terminal hexahistidine tag (pET31b(+)); E. coli; 40,084 Da
The experiment in a line: product analysis by ESI-MS, 1H and […] NMR. The data set is classed as biochemical. As to conditions: 5.0 mM ATP, 10 mM MgCl2, 50 mM NH4HCO3, pH 8.0, 25 °C, 4 h.

T1 sequence (Q0P8H6 entry or part of it): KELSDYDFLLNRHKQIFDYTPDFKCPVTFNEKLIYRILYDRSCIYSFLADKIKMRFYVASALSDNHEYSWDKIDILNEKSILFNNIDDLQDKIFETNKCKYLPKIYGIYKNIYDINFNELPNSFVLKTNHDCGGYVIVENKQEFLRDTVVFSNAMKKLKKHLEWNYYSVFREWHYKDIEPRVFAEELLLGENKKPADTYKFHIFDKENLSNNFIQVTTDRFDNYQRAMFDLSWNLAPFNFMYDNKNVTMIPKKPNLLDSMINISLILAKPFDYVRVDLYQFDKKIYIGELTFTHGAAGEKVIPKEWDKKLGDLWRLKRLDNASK

Take “Cj1432N (N-terminal domain of Cj1432) (Campylobacter jejuni subsp. jejuni NCTC 11168 = ATCC 700819)”: in data set [1], the Km was found to be 970 ± 90 µM and the kcat was found to be 0.0085 ± 0.00017 s⁻¹.

Regarding `N[C@@H](CO)COP(=O)(O)O` [(S)-serinol phosphate], the “product analysis by ESI-MS, 1H and 31P NMR” value in data set [2] (5.0 mM compound 7a) was “Incubation of Cj1438C with ATP, MgCl2, compound 7a, and (S)-serinol-P resulted in the formation”. As for `CO[C@@H]1O[C@H](CO)[C@@H](O)[C@H]1O[C@H]1O[C@H](C(=O)O)[C@@H](O)[C@H](O)[C@H]1O` [7a, compound 7a], the “product analysis by ESI-MS, 1H and 31P NMR” value in data set [2] (5.0 mM (S)-serinol phosphate) was “Incubation of Cj1438C with ATP, MgCl2, compound 7a, and (S)-serinol-P resulted in the formation”.
